Laboratory results as given in patent publication US12295987B2, “Method of using a GIP/GLP1 co-agonist for diabetes” (Eli Lilly and Company, priority 2018, dated 2025).
Numbered stars: 1 amine (or outer) side, 2 acyl side, 3 side chain; on linkers, the order of the positions; unused ones are H or OH. Square brackets hold non-standard residues; d marks the D form. Side chains are listed from the residue outwards. Ends that are not written are not given here. * marks the point of attachment. C20 diacid = O=C(O)CCCCCCCCCCCCCCCCCCC(=O)*; γGlu = O=C(O)[C@H](CCC(=O)[*:2])N[*:1]; AEEA = NCCOCCOCC(=O)O; Aib = CC(C)(N)C(=O)O

Target: T1, human gastric inhibitory peptide receptor (hGIPR) (Homo sapiens, UniProt P48546)
T1 construct: expressed in transfected cells; host or cells: HEK293
T1 sequence (P48546 22-466): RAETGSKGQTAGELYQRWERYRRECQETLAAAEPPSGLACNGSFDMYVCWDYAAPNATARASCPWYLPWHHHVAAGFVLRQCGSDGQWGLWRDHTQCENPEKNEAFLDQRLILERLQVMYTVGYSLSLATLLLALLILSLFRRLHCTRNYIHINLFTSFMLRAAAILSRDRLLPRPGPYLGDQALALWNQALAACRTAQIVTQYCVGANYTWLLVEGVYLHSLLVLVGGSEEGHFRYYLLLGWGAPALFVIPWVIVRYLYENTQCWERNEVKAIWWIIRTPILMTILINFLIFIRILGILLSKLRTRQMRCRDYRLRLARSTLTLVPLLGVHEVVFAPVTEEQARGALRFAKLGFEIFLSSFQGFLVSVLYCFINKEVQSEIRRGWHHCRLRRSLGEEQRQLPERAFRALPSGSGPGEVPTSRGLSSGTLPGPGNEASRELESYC
Test: cAMP pharmacological functional assay in presence of 0.1% casein, hGIPR
Type: cell-based
Settings: ratio of hGIPR to hGLP1R cAMP EC50 ratios

Substance | [hGIPR/hGLP1R] EC50 Ratio
Y-Aib-EGTFTSDYSILLDKIAQ-Aib-AFIEYLIEGGPSSGAPPPK((2-[2-(2-Amino-ethoxy)-ethoxy]-acetyl)2-(γGlu)-CO—(CH2)18—CO2H)—NH2 (Y[Aib]EGTFTSDYSILLDKIAQ[Aib]AFIEYLIEGGPSSGAPPPK([AEEA-AEEA-γGlu-C20 diacid])-NH2; N-terminus assumed; SMILES CC[C@H](C)[C@H](NC(=O)[C@H](CCCCN)NC(=O)[C@H](CC(=O)O)NC(=O)[C@H](CC(C)C)NC(=O)[C@H](CC(C)C)NC(=O)[C@@H](NC(=O)[C@H](CO)NC(=O)[C@H](Cc1ccc(O)cc1)NC(=O)[C@H](CC(=O)O)NC(=O)[C@H](CO)NC(=O)[C@@H](NC(=O)[C@H](Cc1ccccc1)NC(=O)[C@@H](NC(=O)CNC(=O)[C@H](CCC(=O)O)NC(=O)C(C)(C)NC(=O)[C@@H](N)Cc1ccc(O)cc1)[C@@H](C)O)[C@@H](C)O)[C@@H](C)CC)C(=O)N[C@@H](C)C(=O)N[C@@H](CCC(N)=O)C(=O)NC(C)(C)C(=O)N[C@@H](C)C(=O)N[C@@H](Cc1ccccc1)C(=O)N[C@H](C(=O)N[C@@H](CCC(=O)O)C(=O)N[C@@H](Cc1ccc(O)cc1)C(=O)N[C@@H](CC(C)C)C(=O)N[C@H](C(=O)N[C@@H](CCC(=O)O)C(=O)NCC(=O)NCC(=O)N1CCC[C@H]1C(=O)N[C@@H](CO)C(=O)N[C@@H](CO)C(=O)NCC(=O)N[C@@H](C)C(=O)N1CCC[C@H]1C(=O)N1CCC[C@H]1C(=O)N1CCC[C@H]1C(=O)N[C@@H](CCCCNC(=O)COCCOCCNC(=O)COCCOCCNC(=O)CC[C@H](NC(=O)CCCCCCCCCCCCCCCCCCC(=O)O)C(=O)O)C(N)=O)[C@@H](C)CC)[C@@H](C)CC) [Peptide 48] | 8.93
Y-Aib-EGT-αMeF(2F)-TSDYSI-αMeL-LD-Orn-K((2-[2-(2-Amino-ethoxy)-ethoxy]-acetyl)2-(γGlu)-CO—(CH2)16—CO2H)AQ-Aib-EFI-(D-Glu)-YLIEGGPSSGAPPPS-NH2 (YXEGTXTSDYSIXLDXKAQXEFIXYLIEGGPSSGAPPPS; Aib, Orn, αMe residues, lipidated Lys, D-Glu, amide; (2)..(2) Xaa at position 2 is Aib; (6)..(6) Xaa at position 6 is alpha-MeF(2F); (13)..(13) Xaa at position 13 is alpha-MeL; (16)..(16) Xaa at position 16 is Orn; MOD_RES (17)..(17) K at position 17 is chemically modified by conjugation of the epsilon-amino group of the K side chain with (2-[2-(2-amino-ethoxy)-ethoxy]-acetyl)2-(gamma-Glu)-CO-(CH2)16- CO2H; (20)..(20) Xaa at position 20 is Aib; (24)) [Peptide 2] | 6.63
